This assay has as its target T1, biotinylated hTM4SF4 (T126-E140) peptide containing a GSAGGS spacer (Homo sapiens, also: biotin, position not given here, GSAGGS spacer, position not given here).
T1 construct: human TM4SF4, residues T126-E140 of the large extracellular loop; also called biotinylated hTM4SF4 peptide; hTM4SF4 peptide
T1 chain: TWGYPFHDGDYLNDE
Briefly: SPR; Biacore T200; biotinylated hTM4SF4 peptide with GSAGGS spacer immobilised on a streptavidin chip; antibodies in two-fold dilutions (128-1 nM or 512-16 nM) in HBS-EP+; 25°C; 30 μL/min; 1:1 binding model. The following applies: both partners purified.

Consider one molecule from article PMC12680531, “A novel TM4SF4-targeting therapeutic antibody candidate with antitumor activity by blocking IGF1R and CD44 signaling and downregulating PD-L1 and B7-H4” (Theranostics, 2026).

No end group written: not given here.

B1: murine anti-hTM4SF4 monoclonal antibody 2B7 (antibody, V domains shown)
VH: EVKLEESGPGILQPSQTLSLTCSFSGFSLSTYGIGVSWIRQPSGKGLEWLAHIWWNDNKYYNTALKSRLTISKDTSNNQVFLKIASVDTADTATYYCARKEGSSAPFAYWGQGTLVTVSA
VL: not shown
notes: VH of murine 2B7; mouse IgG1 heavy chain constant region; Vκ of murine 2B7; mouse kappa light chain constant region; murine IgG1, kappa; also called murine 2B7; anti-hTM4SF4 mAb 2B7; source: murine hybridoma, purified from culture supernatant (protein G chromatography)
The molecule B1 gave a Kd of 2.66 nM.

The term Kd denotes the constant that tells how readily two partners part at equilibrium.
